Key:
PANC-1 tumors = settings: PANC-1 xenograft, intraperitoneal for 14 days
[1] = system: tSTAT3, pSTAT3 and PD-L1 in MDA-MB-231 cells; assay: Immunoblot (slot blot) of tSTAT3, pSTAT3 and PD-L1; format: cell-based, human; settings: MDA-MB-231, 3, 6 and 24 hours, β-actin normalized, 50-100 ug/ml
MDA-MB-231 cells = assay: Cell penetration by immunofluorescence/confocal microscopy; format: cell-based, human
HIV-1 RT = HIV-1 RT (Human immunodeficiency virus type 1 group M subtype B, UniProt P04585); settings: read-out: Binding affinity (KD)
ENBOV (Ebola) in HeLa = format: cell-based, Ebola virus
ENBOV (Ebola) in HFF = format: cell-based, Ebola virus
Zika in Vero = format: cell-based, Zika virus

Nc1ccn([C@@H]2O[C@H](CO)[C@@H](O)C2(F)F)c(=O)n1 [Gemcitabine, gemcitabine, reference compound]
% Inhibition of Control, Day 12 (PANC-1 tumors; Day 12): 19.51% | % Inhibition of Control, Day 15 (PANC-1 tumors; Day 15): 23.17% | % Inhibition of Control, Day 19 (PANC-1 tumors; Day 19): 23.26% | % Inhibition of Control, Day 22 (PANC-1 tumors; Day 22 (end of the study)): 14.93%

Cc1ccc(S(=O)(=O)OCC(=O)Nc2ccc(C(=O)O)c(O)c2)cc1 [S3I-201, reference compound]
Levels of tSTAT3, pSTAT3 and PD-L1 [1]: decreased

B1: SBT-107: anti-HIV-1 Reverse Transcriptase (RT) VHH, SEQ ID NO. 4 (protein)
VHH: MGDVQLVESGGDSVRAGGSLQLSCKASGYTYNSRVDIRSMGWFRQYPGKEREGVATINIRNSVTYYADSVKGRFTISQDNAKNTVYLQMNALKPEDTAMYYCALSDRFAAQVPARYGIRPSDYNYWGEGTLVTVSSSSGLE
modifications: Camelid
Intracellular staining/localization of VHH (MDA-MB-231 cells): no intracellular staining | Kd (HIV-1 RT): 3.85 nM

B2: SBT-106 (protein)
VHH: EVQLVESGGGSVQAGGSLRLSCAASVYSYNTNCMGWFRQAPGKEREGVAVIYAAGGLTYYADSVKGRFTISQENGKNTVYLTMNRLKPEDTAMYYCAAKRWCSSWNRGEEYNYWGQGTQVTVSS
EC50 (ENBOV (Ebola) in HeLa): 3490 nM | Comment (ENBOV (Ebola) in HFF): Does not inhibit Ebola virus | EC50 [μM] (ENBOV (Ebola) in HFF): No | EC50 [μM] (Zika in Vero): No
